From the supplement of paper PMC10724198
± gives the standard deviation of the averaged measurements.
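Also: PSI is a weighted mean of sequencing reads over stability bins, variants kept only with over 10 reads, mCherry proximal and sfGFP distal, peptide attached via GGGS linker.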

What follows are sequences tested on Saccharomyces cerevisiae (assay: protein stability index of tFT-peptide fusion (C-terminal peptide) (PSI (0-1 scale)); higher = more stable (slower turnover)). Settings: genetic background: wild type; temperature: 37 C.
Procedure: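 MPS profiling in S. cerevisiae of the tFT-X12 degron library: putative degron peptides plus stable controls, 12 aa, fused to the C-terminus of a sfGFP-mCherry timer. Cells are FACS-sorted into 8 mCherry/sfGFP bins and deep-sequenced. PSI runs from 0 (unstable) to 1 (stable). Backgrounds are wild type, das1Δ and doa10Δ at 30 °C, and wild type, das1Δ, cdc34-1 and cdc53-1 at 37 °C; 2-3 technical replicates each.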
KALFPGLLLCAF gave a protein stability index of 0.268 ± 0.017. In the case of KLLDHFVKIRVY, the protein stability index is reported as 0.0534 ± 0.03. For KLRELQVRQQLS, the protein stability index was 0.413 ± 0.017. LAEHIFLVLDHG gave a protein stability index of 0.478 ± 0.0089. LAISTIQMFKRI gave a protein stability index of 0.568 ± 0.038. For LAKPTVRKIICV, the protein stability index was 0.421 ± 0.0089. For LAPSRNRSVWLV, the protein stability index was 0.199 ± 0.0086. For LASFCSVCIFIS, the protein stability index was 0.17 ± 0.012. LASWVVFIWFLW showed a protein stability index of 0.423 ± 0.041. With LCFLVALASMLF the protein stability index was 0.5246 ± 0.00074. Work on LCFVCLWGYLGV yielded a protein stability index of 0.4791 ± 0.0038. LCFVFVLGFFAF gave a protein stability index of 0.501 ± 0.022. LCTCFLVLLLWC was tested, and the protein stability index was 0.4407 ± 0.0027. For LCVFRFFLFFFL, the protein stability index was 0.427 ± 0.016. LDFPPLRLILRL was tested, and the protein stability index was 0.6071 ± 0.0026. With LEPFTGYTVIVM the protein stability index was 0.261 ± 0.032. Sequence LFDVLFVFSFIF has a protein stability index of 0.503 ± 0.019. LFFASFLLIGPF was tested, and the protein stability index was 0.483 ± 0.041. LFFFFLPHLILL showed a protein stability index of 0.395 ± 0.011. With LFHPPSFSLRLF the protein stability index was 0.5619 ± 0.0044. LFHVWSLRFFWL gave a protein stability index of 0.434 ± 0.015. LFLFVGCSVRRL showed a protein stability index of 0.5744 ± 0.0024. In the case of LFLLYVLVSLFV, the protein stability index is reported as 0.39 ± 0.052. LFLVVVVRAGGF showed a protein stability index of 0.382 ± 0.045. In the case of LFPVASLCLART, the protein stability index is reported as 0.659 ± 0.057. LFRFVFLLFGFW showed a protein stability index of 0.526 ± 0.026. LFRNIFLFVFLI gave a protein stability index of 0.307 ± 0.016. With LFWTWVLVGVSV the protein stability index was 0.263 ± 0.033. Work on LGATYSVQLYVS yielded a protein stability index of 0.0856 ± 0.005. LGIPKLLCFVCT gave a protein stability index of 0.421 ± 0.017. For LGLCFFFYSLHS, the protein stability index was 0.599 ± 0.057. For LGNVTDVMHRLS, the protein stability index was 0.617 ± 0.012. Sequence LGVVLFCFRFCR has a protein stability index of 0.543 ± 0.019. Work on LHFHIYLIISPF yielded a protein stability index of 0.261 ± 0.01. With LHLLFLPFVVCL the protein stability index was 0.113 ± 0.014. LIFFFCSWVFRF was tested, and the protein stability index was 0.365 ± 0.0071. Work on LIFLSISFISSL yielded a protein stability index of 0.286 ± 0.0096. LILFMLLSFLTT was tested, and the protein stability index was 0.3954 ± 0.0026. With LIRVLRVLRHSS the protein stability index was 0.382 ± 0.045. LLAVIVWIVPPA showed a protein stability index of 0.39 ± 0.0093. With LLCRVSRTRILC the protein stability index was 0.166 ± 0.022. With LLDIYFILLVWF the protein stability index was 0.432 ± 0.066. Sequence LLFLWVLFLPFA has a protein stability index of 0.472 ± 0.0041. LLFPRVLVLCFS was tested, and the protein stability index was 0.116 ± 0.012. With LLILIVNLRRIG the protein stability index was 0.444 ± 0.025. LLISPFLFLLVC showed a protein stability index of 0.0515 ± 0.00088. In the case of LLLLGVSLFLVR, the protein stability index is reported as 0.4257 ± 0.0031. Work on LLLPSAPFLFLL yielded a protein stability index of 0.288 ± 0.014. LLMLWWARVFSG was tested, and the protein stability index was 0.35 ± 0.0075. LLVFWRLWWSLS gave a protein stability index of 0.128 ± 0.007. LLVKFTFLIIFT gave a protein stability index of 0.2767 ± 0.0024. For LLVLPFFSLSRF, the protein stability index was 0.852 ± 0.019. Sequence LLVVFSCFTFMF has a protein stability index of 0.449 ± 0.022. LMLGARVSRRIH was tested, and the protein stability index was 0.5065 ± 0.0015. LNALSHCRAICS was tested, and the protein stability index was 0.462 ± 0.0055. In the case of LPASLSLWPLLC, the protein stability index is reported as 0.127 ± 0.015. LPPHLPFPLSAA gave a protein stability index of 0.621 ± 0.0089. LPSPLLFLPALF showed a protein stability index of 0.614 ± 0.017. LQSVAFERGGPD was tested, and the protein stability index was 0.7194 ± 0.0071. Work on LRSVVFFCRTLL yielded a protein stability index of 0.566 ± 0.017. Sequence LSFFDYVLLQIA has a protein stability index of 0.317 ± 0.027. Sequence LSLGVGSDAEGG has a protein stability index of 0.712 ± 0.0096. Sequence LSYRFVFRFLLF has a protein stability index of 0.472 ± 0.0083. LVCLFFLSSLFF gave a protein stability index of 0.58 ± 0.017. In the case of LVCLVASCVRWL, the protein stability index is reported as 0.4608 ± 0.0029. For LVGVLLAVWSVV, the protein stability index was 0.338 ± 0.045. LVLGLYGVWLVV was tested, and the protein stability index was 0.3561 ± 0.0035. LVMYRSALIRGH gave a protein stability index of 0.525 ± 0.01. Work on LVSWAWIWIFVF yielded a protein stability index of 0.32239 ± 2.4e-05. LVSYHKMAISSF gave a protein stability index of 0.571 ± 0.0095. In the case of LWWTRVILYGYI, the protein stability index is reported as 0.445 ± 0.013. In the case of LYCGLIFFLRGV, the protein stability index is reported as 0.612 ± 0.0081. For LYFLLGSLVFVF, the protein stability index was 0.461 ± 0.031. MALAVRVVTCGA was tested, and the protein stability index was 0.313 ± 0.015. Work on MIQPRLANIIIS yielded a protein stability index of 0.779 ± 0.017. Work on MLVLFCLCYILG yielded a protein stability index of 0.338 ± 0.03. MSHVCICRRLML was tested, and the protein stability index was 0.646 ± 0.048. In the case of NFVVYHVAIRVP, the protein stability index is reported as 0.198 ± 0.02.

Each sequence was assayed on Saccharomyces cerevisiae in the same assay as above. Settings: genetic background: wild type; temperature: 30 C.
Sequence KALFPGLLLCAF has a protein stability index of 0.307 ± 0.014. KLLDHFVKIRVY gave a protein stability index of 0.0988 ± 0.0069. KLRELQVRQQLS was tested, and the protein stability index was 0.382 ± 0.02. For LAEHIFLVLDHG, the protein stability index was 0.453 ± 0.013. In the case of LAISTIQMFKRI, the protein stability index is reported as 0.38 ± 0.019. Work on LAKPTVRKIICV yielded a protein stability index of 0.419 ± 0.007. LAPSRNRSVWLV was tested, and the protein stability index was 0.247 ± 0.036. Sequence LASFCSVCIFIS has a protein stability index of 0.163 ± 0.029. LASWVVFIWFLW showed a protein stability index of 0.329 ± 0.077. In the case of LCFLVALASMLF, the protein stability index is reported as 0.504 ± 0.01. Sequence LCFVCLWGYLGV has a protein stability index of 0.479 ± 0.044. LCFVFVLGFFAF was tested, and the protein stability index was 0.421 ± 0.017. With LCTCFLVLLLWC the protein stability index was 0.337 ± 0.1. Sequence LCVFRFFLFFFL has a protein stability index of 0.402 ± 0.054. LDFPPLRLILRL showed a protein stability index of 0.538 ± 0.064. LEPFTGYTVIVM showed a protein stability index of 0.334 ± 0.048. In the case of LFDVLFVFSFIF, the protein stability index is reported as 0.449 ± 0.045. LFFASFLLIGPF was tested, and the protein stability index was 0.393 ± 0.0098. For LFFFFLPHLILL, the protein stability index was 0.377 ± 0.035. LFHPPSFSLRLF gave a protein stability index of 0.528 ± 0.25. LFHVWSLRFFWL gave a protein stability index of 0.391 ± 0.023. In the case of LFLFVGCSVRRL, the protein stability index is reported as 0.4951 ± 0.0047. LFLLYVLVSLFV showed a protein stability index of 0.281 ± 0.045. In the case of LFLVVVVRAGGF, the protein stability index is reported as 0.293 ± 0.0094. Sequence LFPVASLCLART has a protein stability index of 0.529 ± 0.065. LFRFVFLLFGFW showed a protein stability index of 0.446 ± 0.049. Work on LFRNIFLFVFLI yielded a protein stability index of 0.306 ± 0.029. In the case of LFWTWVLVGVSV, the protein stability index is reported as 0.256 ± 0.028. In the case of LGATYSVQLYVS, the protein stability index is reported as 0.131 ± 0.0029. For LGIPKLLCFVCT, the protein stability index was 0.386 ± 0.019. Sequence LGLCFFFYSLHS has a protein stability index of 0.462 ± 0.0096. Work on LGNVTDVMHRLS yielded a protein stability index of 0.48 ± 0.0083. For LGVVLFCFRFCR, the protein stability index was 0.477 ± 0.005. LHFHIYLIISPF showed a protein stability index of 0.294 ± 0.012. LHLLFLPFVVCL gave a protein stability index of 0.108 ± 0.02. For LIFFFCSWVFRF, the protein stability index was 0.377 ± 0.012. For LIFLSISFISSL, the protein stability index was 0.295 ± 0.05. LILFMLLSFLTT gave a protein stability index of 0.373 ± 0.032. In the case of LIRVLRVLRHSS, the protein stability index is reported as 0.375 ± 0.056. LLAVIVWIVPPA gave a protein stability index of 0.304 ± 0.042. With LLCRVSRTRILC the protein stability index was 0.227 ± 0.013. In the case of LLDIYFILLVWF, the protein stability index is reported as 0.346 ± 0.29. With LLFLWVLFLPFA the protein stability index was 0.363 ± 0.045. Sequence LLFPRVLVLCFS has a protein stability index of 0.183 ± 0.029. In the case of LLILIVNLRRIG, the protein stability index is reported as 0.281 ± 0.052. LLISPFLFLLVC was tested, and the protein stability index was 0.0803 ± 0.024. Work on LLLLGVSLFLVR yielded a protein stability index of 0.3657 ± 0.00075. LLLPSAPFLFLL was tested, and the protein stability index was 0.2954 ± 0.0012. LLMLWWARVFSG was tested, and the protein stability index was 0.329 ± 0.0066. Sequence LLVFWRLWWSLS has a protein stability index of 0.157 ± 0.0075. In the case of LLVKFTFLIIFT, the protein stability index is reported as 0.266 ± 0.025. Work on LLVLPFFSLSRF yielded a protein stability index of 0.816 ± 0.01. Sequence LLVVFSCFTFMF has a protein stability index of 0.38 ± 0.037. LMLGARVSRRIH showed a protein stability index of 0.402 ± 0.0098. LNALSHCRAICS showed a protein stability index of 0.379 ± 0.039. In the case of LPASLSLWPLLC, the protein stability index is reported as 0.1137 ± 0.0011. Sequence LPPHLPFPLSAA has a protein stability index of 0.383 ± 0.011. Sequence LPSPLLFLPALF has a protein stability index of 0.466 ± 0.014. Work on LQSVAFERGGPD yielded a protein stability index of 0.727 ± 0.018. LRSVVFFCRTLL showed a protein stability index of 0.5 ± 0.0099. Work on LSFFDYVLLQIA yielded a protein stability index of 0.285 ± 0.01. Work on LSLGVGSDAEGG yielded a protein stability index of 0.549 ± 0.17. LSYRFVFRFLLF gave a protein stability index of 0.421 ± 0.0094. LVCLFFLSSLFF was tested, and the protein stability index was 0.4609 ± 0.0043. LVCLVASCVRWL gave a protein stability index of 0.357 ± 0.019. Work on LVGVLLAVWSVV yielded a protein stability index of 0.308 ± 0.017. LVLGLYGVWLVV gave a protein stability index of 0.345 ± 0.015. LVMYRSALIRGH showed a protein stability index of 0.462 ± 0.05. LVSWAWIWIFVF was tested, and the protein stability index was 0.226 ± 0.054. Work on LVSYHKMAISSF yielded a protein stability index of 0.47 ± 0.051. LWWTRVILYGYI was tested, and the protein stability index was 0.387 ± 0.036. For LYCGLIFFLRGV, the protein stability index was 0.516 ± 0.084. Sequence LYFLLGSLVFVF has a protein stability index of 0.392 ± 0.0081. MALAVRVVTCGA was tested, and the protein stability index was 0.375 ± 0.076. For MIQPRLANIIIS, the protein stability index was 0.753 ± 0.018. MLVLFCLCYILG gave a protein stability index of 0.341 ± 0.0068. MSHVCICRRLML showed a protein stability index of 0.498 ± 0.011. For NFVVYHVAIRVP, the protein stability index was 0.243 ± 0.037.
